Here are results for one substance from patent US20120100141A1.

The target of the assay is Mouse GLP-1 receptor (mouse) (UniProt O35659). The experiment in a line: cell-based or functional assay.
Mouse GLP-1 receptor (mouse), sequence (O35659 22-463): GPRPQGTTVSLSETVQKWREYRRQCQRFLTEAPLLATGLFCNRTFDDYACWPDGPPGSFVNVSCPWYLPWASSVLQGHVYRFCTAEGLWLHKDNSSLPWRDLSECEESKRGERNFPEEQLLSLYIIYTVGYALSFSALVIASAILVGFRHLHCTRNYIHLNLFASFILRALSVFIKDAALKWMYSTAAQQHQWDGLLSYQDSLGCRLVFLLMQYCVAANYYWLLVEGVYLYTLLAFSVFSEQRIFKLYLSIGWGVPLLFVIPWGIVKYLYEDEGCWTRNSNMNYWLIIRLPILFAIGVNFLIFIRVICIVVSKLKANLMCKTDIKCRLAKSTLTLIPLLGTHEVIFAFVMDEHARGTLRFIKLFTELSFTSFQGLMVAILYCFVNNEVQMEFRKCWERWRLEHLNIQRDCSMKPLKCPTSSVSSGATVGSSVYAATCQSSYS

With “GLP-1 (7-36) (from UniProt P01275 98-127) (peptide)”, the pEC50, melanophore functional GLP-1R bioassay amounted to 11.5.
